According to patent US20040254352A1, “Lipid-polymer-conjugates” (priority 2001, published 2004):
Where “and” joins values, the source holds several entries; their conditions need not be identical. Equal values may be shown once.

Assays:
[1] = Particle size and polydispersity of liposomes by (dynamic) light scattering; assay type: physicochemical; settings: DPPC/cholesterol/conjugate liposomes of Table 1 (Example 21); for Average particle size: dynamic light scattering
Description: The lipid loss during preparation of the liposomes was 25%, determined by comparing the final radioactivity of the preparation with the activity before the extrusion procedure. The suspension of liposomes was stored in a nitrogen atmosphere at 4° C. Liposomes were prepared using the film method, as described in example 20. Instead of egg phosphatidylcholine dipalmitoyl phosphatidylcholine was used. 5 mM HEPES buffer was added to the dry lipid film and shaken during 5 minutes in the presence of glass beads in order to enable complete hydration of the lipid film. The liposomes were sized by extrusion 12 times through 2 stacked PC membranes having pore sizes of 100 and 200 nm. […] See table 1 for the properties of the liposomal preparations.

[2] = Comparative kinetics of 3H-labelled liposomes containing polymer-lipid-conjugates after a single intravenous injection to the rat (blood circulation time); settings: for Increase of blood circulation time: rat, single i.v. injection; for Blood circulation time of the liposomes compared with PEG-grafted liposomes: intravenous administration to rats
Description: Single-dose intravenous injection of liposomal preparations, each containing ^3H-labelled cholesteryloleylether (Amersham) having 40-50 kBq of radioactivity, (compositions per 50 μmol lipid are shown in Table 1) was given into the tail-vein. Total Lipid administered was 5 μmol, except in the cases indicated.
Blood samples were collected from the tail vein of each rat at the following time points post-dose: 5 minutes and 4, 24 and 48 hours. The amount of sample collected was approx. 300 μl per sampling event.
Sampled blood was transferred into heparinised tubes and stored at −20° C.
A single aliquot of 100 μl was solubilised according to the following method:
Radioactivity was measured by LSC.
All radioactive measurements were performed using a Packard scintillation counter (1900TR). Counting time was to a statistical precision of ±0.2% or a maximum of 5 minutes, whichever comes first. The Packard 1900TR was programmed to automatically subtract background and convert counts per minute (CPM) to disintegrations per minute (DPM).
The increase of blood circulation time was assessed, wherein:
Moderate means effect on circulation time in between those shown by PEG-DSPE-containing liposomes and bare liposomes without polymer coating.
Slightly means effect on circulation time under the current conditions almost similar to that shown by bare liposomes.

[3] = Particle size and polydispersity of liposomes by (dynamic) light scattering; assay type: physicochemical
[4] = Storage stability of prednisolone phosphate liposomes at 4° C. (percentage encapsulated prednisolone phosphate versus time); settings: compared with poly(2-hydroxyethyl)-L-glutamine-diaminobutane DODASuc-conjugate-containing liposome
[5] = Total Lipid administered 5 μmol
[6] = prednisolone phosphate liposomes of Example 23, light scattering
[7] = Total Lipid administered 0.005 μmol
[8] = Total Lipid administered 0.05 μmol
[9] = Total Lipid administered 0.5 μmol
[10] = 11.2 mg conjugate per 50 µmol lipid
[11] = 13.8 mg conjugate per 50 µmol lipid

Compound	Polydispersity index [1]	Average particle size [1]	Increase of blood circulation time [2, 5]	further results
poly(HEG-co-dimethylaminoethylglutamine)diaminobutane DODASuc; 5% dimethylaminoethyl sidegroups [Ex. 9]	0.039	170.3 ± 2.5 nm	Moderate	
Poly(D,L-methionine sulfoxide) DODASuc [Ex. 15]	0.062	159.9 ± 2.3 nm	Good	Blood circulation time of the liposomes compared with PEG-grafted liposomes [2]: Results similar to those obtained with the corresponding PEG-grafted liposomes
PEG-distearoylphosphatidylethanol-amine [PEG-DSPE, reference compound]		156.3 nm	Good	Mean particle size [3, 6]: ~90 nm; Increase of blood circulation time [2, 7]: <Slightly; Increase of blood circulation time [2, 8]: Good; Increase of blood circulation time [2, 9]: Good
Poly(DL-serine) DODASuc [Ex. 13]			Slightly	
Poly(2-hydroxyethyl)-DL-glutamine diaminobutane DODASuc [Ex. 7]	0.073	159.0 ± 3.8 nm		
Poly(DL-asparagine) DODASuc [Ex. 17]			Moderate	
Poly-[(4-hydroxybutyl)-L-glutamine]diaminobutane DODASuc [Ex. 5.4]	0.071	148.2 ± 1.7 nm		
Cholesteryl-PHEG [Ex. 6]	0.116	138.7 ± 1.8 nm	Slightly	
Poly-L-threonine DODASuc [compound 14]				Mean particle size [3, 6]: about 85 nm
Poly(N-(2-hydroxyethyl)-L-glutamine) Having a Heptadecyloctadecylamine End Group [Ex. 2]	0.205	143 ± 2 nm		
CCCCCCCCCCCCCCCCCCN(CCCCCCCCCCCCCCCCCC)C(=O)CCC(=O)NCCC(=O)NCCC(=O)NCCC(=O)N[C@@H](CCC(=O)NCCO)C(=O)NCCC(=O)NCCC(=O)NCCC(=O)NCCC(=O)N[C@@H](CCC(=O)NCCO)C(=O)NCCC(=O)NCCC(=O)NCCC(=O)N[C@@H](CCC(=O)NCCO)C(=O)NCCC(=O)NCCC(N)=O [Ex. 19, DODASuc-(β-Ala)3-HEG-(β-Ala)4-HEG-(β-Ala)3-HEG-(β-Ala)2-NH2]			Moderate	
Poly(2-hydroxyethyl)-L-asparagine DODASuc [Ex. 11]			Good and Good §	Stability of liposomal preparation with encapsulated prednisolone phosphate [4]: slightly better result; Blood circulation time of the liposomes compared with PEG-grafted liposomes [2]: Results similar to those obtained with the corresponding PEG-grafted liposomes; Increase of blood circulation time [2, 7]: Slightly; Increase of blood circulation time [2, 8]: Good; Increase of blood circulation time [2, 9]: Good
PHEG-diaminobutane DODASuc [Ex. 5.1]	0.090 and 0.073	140.3 ± 2.2 nm and 159.0 ± 3.8 nm	Good and Good §	Blood circulation time of the liposomes compared with PEG-grafted liposomes [2]: Results similar to those obtained with the corresponding PEG-grafted liposomes
Poly-[(2-hydroxypropyl)-L-glutamine]diaminobutane DODASuc [Ex. 5.2]				Average particle size [1, 10]: 163.9 ± 3.0 nm; Average particle size [1, 11]: 153.0 ± 0.9 nm; Polydispersity index [1, 10]: 0.068; Polydispersity index [1, 11]: 0.090
poly-[N-(2-hydroxyethyl)-L-glutamine]-stearylamine [Ex. 20]	0.167	171.6 ± 2.5 nm		Polydispersity index ([3]; EPC/cholesterol/PHEG-stearylamine liposomes of Example 20): 0.099±0.02; Mean particle size ([3]; EPC/cholesterol/PHEG-stearylamine liposomes of Example 20, light scattering (Malvern Zeta-sizer)): 93.6±0.9 nm
Poly(DL-glutamine DODASuc [Ex. 16]			Moderate	
Poly-[N-(2-hydroxyethyl)-L-glutamine] Having a Distearylamine End Group Introduced Via N-Boc-1,4-diaminobutane as Initiator [Ex. 3]	0.056	153 ± 0.5 nm		
